US20130287781A1 (GlaxoSmithKline, published 2013)
Where a chain is given by its changes, count along the chain named. Numbers in names are those of the source. Where no end group is shown, it is not given here. The star is where a group is joined. Biotin = O=C1N[C@H]2[C@H](CS[C@H]2CCCCC(=O)*)N1

What was measured:
[1] = target: T1, GST-human NOGO-A56 (human); assay: SPR (Biacore), NOGO amine-coupled to CM5, antibody flowed over
T1 construct: Expressed in E. coli BL21 from pGEX-6P1 and purified on glutathione-sepharose; the GST tag is part of the protein in the assays; also called GST-Nogo-A 5+6; GST Nogo-A 5 + 6
Procedure: (§1) GST-human NOGO-A56 was immobilised to a CM5 chip by primary amine coupling using the Biacore Wizard program designed for targeted immobilisation levels. The CM5 sensor surface was activated by passing a solution of 50 mM N-hydroxy-succinimide (NHS) and 200 mM N-ethyl-N′-dimethylaminopropyl carbonide (EDC). Then GST-human NOGO-A56 in sodium acetate buffer, pH5.0 or pH 4.5, was passed over the chip and immobilised. After immobilisation was complete any still activated esters were blocked by an injection of 1M ethanolamine hydrochloride, pH8.5.

[2] = target: T1, GST-human NOGO-A56; assay: SPR (Biacore) off-rate ranking on GST-human NOGO-A56 chip, one experiment
Procedure: as §1
The GST-human NOGO-A56 chip was prepared as for kinetic analysis. Cell supernatants where taken directly from transient transfections of CHO-K1 cells. These were passed directly over the sensor surface and the interaction measured. A mock transfected cell supernatant was used for double referencing to remove any artefacts due to the tissue culture media. All runs were referenced against a blanked sensor surface (one that had been activated and blocked as described earlier but had no addition of ligand). Analysis of binding was carried out using the BIAevaluation kinetic analysis software version 4.1.

[3] = target: T1, GST-human NOGO-A56; assay: SPR (Biacore) off-rate on NOGO chip, panel of H6FL CDR H3 variants with L13FL
[4] = target: T1, GST-human NOGO-A56; assay: direct ELISA, GST-human NOGO-A56 coated at 1.0 mcg/ml, purified antibody, OD490
Procedure: (§2) Wells were rinsed once with TBS+0.05% Tween (TBST) then incubated with 2% BSA in TBST to block non-specific binding sites at room temperature for 1 hour. Antibodies were diluted in TBST+2% BSA to 10 μg/ml and ½ dilutions made from this. Antibodies were added to wells in duplicate and incubated at room temperature for 1 hour. […] The wells were washed three times with TBST and then incubated with 100 μl OPD peroxidase substrate (Sigma) per well for 10 minutes. The colour reaction was stopped by the addition of 25 μl concentrated H₂SO₄. Optical density at 490 nm was measured using a plate reader. Background values read from wells with no antibody were subtracted.

[5] = target: T1, GST-human NOGO-A56; assay: as above; remark: listed apart in the source
[6] = target: T2, Rat NOGO (A56) plus GST tag (rat); assay: direct ELISA on GST-NOGO-A56 from rat, Abs490
T2 construct: also called GST-NOGO-A56 from rat

[7] = target: T3, Marmoset NOGO (A56) plus GST tag (marmoset); assay: direct ELISA on GST-NOGO-A56 from marmoset, Abs490
T3 construct: also called GST-NOGO-A56 from marmoset

[8] = target: T4, Cynomolgus monkey NOGO (A56) plus GST tag (cynomolgus monkey); assay: direct ELISA on GST-NOGO-A56 from cynomolgus, Abs490
T4 construct: also called cynomolgus Nogo-A; GST-NOGO-A56 from cynomolgus

[9] = target: T5, Squirrel monkey NOGO (A56) plus GST tag (squirrel monkey); assay: direct ELISA on GST-NOGO-A56 from squirrel monkey, Abs490
T5 construct: also called GST-NOGO-A56 from squirrel monkey

[10] = target: T1, GST-human NOGO-A56; assay: SPR (Biacore), GST-human NOGO-A56 amine-coupled to CM5, antibody flowed over, 25 C
Procedure: as §1
(§3) The anti-NOGO mAbs were diluted down in HBS-EP (10 mM HEPES, pH 7.4, 150 mM NaCl, 3 mM EDTA, and 0.005% P-20 surfactant) for the BIAcore 3000 or HBS-EP+ (10 mM HEPES, pH 7.4, 150 mM NaCl, 3 mM EDTA, and 0.05% P-20 surfactant) in the case of the T100 and binding studies were carried out at range of defined antibody concentrations. All runs were referenced against a blanked sensor surface (one that had been activated and blocked as described earlier but had no addition of ligand). Analysis of binding was carried out using the BIAevaluation kinetic analysis software version 4.1 for the BIAcore 3000 and T100 kinetic analysis software version 1.0. […] Unless otherwise stated, the BIAcore experiments were performed at 25° C.

[11] = target: T1, GST-human NOGO-A56; assay: SPR (Biacore), GST-human NOGO-A56 amine-coupled to CM5, antibody flowed over, 37 C
Procedure: as §1, §3

[12] = target: T1, GST-human NOGO-A56; assay: direct ELISA, GST-Nogo-A 5+6 coated at 1.0 mcg/ml, anti-human IgG-HRP, Abs490
Procedure: as §2

[13] = target: T6, native human Nogo-A of IMR32 neuroblastoma cells (intracellular) (human, UniProt Q9NQC3 1-1192); assay: flow cytometry on permeabilised, fixed IMR32 cells (intracellular Nogo-A), PE anti-human IgG, MFI
T6 construct: whole, on cells; Detected inside permeabilised, fixed cells (ER-resident), not on the cell surface; also called intracellular Nogo-A; native Nogo-A
T6 sequence (looked up): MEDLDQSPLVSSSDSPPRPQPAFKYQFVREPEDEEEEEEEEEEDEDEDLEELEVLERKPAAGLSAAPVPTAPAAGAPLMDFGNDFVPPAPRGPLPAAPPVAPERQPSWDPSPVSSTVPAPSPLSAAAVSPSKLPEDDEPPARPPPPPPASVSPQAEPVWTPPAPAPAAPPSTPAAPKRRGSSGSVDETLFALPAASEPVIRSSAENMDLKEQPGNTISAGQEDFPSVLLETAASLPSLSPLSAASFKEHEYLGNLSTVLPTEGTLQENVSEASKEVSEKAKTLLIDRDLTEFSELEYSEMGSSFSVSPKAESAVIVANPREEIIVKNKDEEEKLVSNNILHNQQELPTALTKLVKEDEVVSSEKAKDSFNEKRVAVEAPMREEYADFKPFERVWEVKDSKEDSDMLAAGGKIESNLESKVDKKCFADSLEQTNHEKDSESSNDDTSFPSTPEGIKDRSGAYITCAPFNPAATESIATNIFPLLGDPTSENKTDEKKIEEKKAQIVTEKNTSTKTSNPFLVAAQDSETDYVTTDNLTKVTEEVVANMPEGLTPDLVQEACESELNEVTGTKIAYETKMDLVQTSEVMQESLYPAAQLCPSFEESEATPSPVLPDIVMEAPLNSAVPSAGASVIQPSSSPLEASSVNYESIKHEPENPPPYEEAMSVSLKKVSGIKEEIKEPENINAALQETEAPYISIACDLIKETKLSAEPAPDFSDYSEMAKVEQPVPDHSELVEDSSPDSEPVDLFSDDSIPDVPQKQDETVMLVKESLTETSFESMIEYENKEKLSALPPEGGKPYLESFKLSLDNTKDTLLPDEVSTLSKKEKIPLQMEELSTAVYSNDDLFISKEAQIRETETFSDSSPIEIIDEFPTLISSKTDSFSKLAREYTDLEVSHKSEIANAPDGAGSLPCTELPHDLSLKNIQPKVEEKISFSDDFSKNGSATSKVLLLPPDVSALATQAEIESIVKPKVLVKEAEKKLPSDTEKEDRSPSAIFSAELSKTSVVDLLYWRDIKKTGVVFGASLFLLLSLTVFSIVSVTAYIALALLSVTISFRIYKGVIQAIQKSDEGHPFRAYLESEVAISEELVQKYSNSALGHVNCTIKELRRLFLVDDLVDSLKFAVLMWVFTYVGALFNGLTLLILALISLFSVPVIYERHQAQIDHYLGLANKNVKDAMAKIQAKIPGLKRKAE
Procedure: In the second assay, the ability of the humanised antibodies to bind native Nogo-A was assessed using a human neuroblastoma cell line—IMR32. This cell line is characterised by high intracellular/low cell surface levels of Nogo-A protein. In an attempt to increase the binding signal, the assay was set-up to detect intracellular Nogo-A (ER-resident). IMR32 cells were permeabilised and fixed prior to staining with the anti-Nogo-A humanised antibodies. Binding of the antibodies to Nogo-A was detected using an anti-human IgG-PE labelled secondary (Sigma, #P8047).

[14] = target: T1, GST-human NOGO-A56; assay: SPR (Biacore T100), antigen amine-coupled to CM5, antibody 0.125-8 nM; mean of six runs in duplicate (SD in brackets)
Source text: In the first approach, the recombinant Nogo-A was coupled to the surface of the chip and anti-Nogo-A antibodies passed over this surface. In the second approach, Protein A was used to capture the antibody onto the surface of the chip over which the recombinant GST-human Nogo-A56 was passed.
The antigen was bound to the CM5 chip by primary amine coupling. […] The values show the mean and standard deviation (in brackets) of six independent runs carried out in duplicate. Each completed data set was analysed independently prior to the calculation of mean and standard deviation.

[15] = target: T1, GST-human NOGO-A56; assay: SPR (Biacore T100), reverse format: antibody captured by Protein A, GST Nogo-A 5+6 0.125-8 nM flowed over; mean (SD in brackets)
Source text: Protein A was immobilised to approximately 4000RUs by primary amine and used to capture 200-300RUs of the sample antibodies. […] The values show the mean and standard deviation (in brackets) of three independent runs in duplicate. Each data set was independently analysed prior to the calculation of the mean and standard deviation.

[16] = target: T1, GST-human NOGO-A56; assay: reverse format ELISA: antibody captured on anti-human IgG, GST-Nogo-A 5+6 detected with anti-GST-HRP; the x axis is the antibody concentration
[17] = target: T1, GST-human NOGO-A56; assay: direct ELISA, human NOGO-A (GST-human NOGO-A56) coated at 1 ug/ml, Abs490
[18] = target: T1, GST-human NOGO-A56; assay: SPR (Biacore), GST-human NOGO-A56 amine-coupled to CM5, antibody flowed over, 25 C; remark: listed apart in the source
Procedure: as §1, §3

[19] = target: T1, GST-human NOGO-A56; assay: as above; remark: listed apart in the source
Procedure: as §1, §3

[20] = target: T1, GST-human NOGO-A56; assay: competition ELISA on coated GST-Nogo-A 5+6; competitor 2A10 pre-mixed, bound 2A10 detected with anti-mouse IgG-HRP
[21] = target: T7, H28L16; assay: competition ELISA: H28L16 captured on anti-human IgG, peptide pre-mixed with GST-human NOGO-A56 (1 ug/ml), bound NOGO detected with anti-GST-HRP
T7 construct: IgG1 (L235A, G237A) / kappa; CAMPATH-1H signal (1-19) left out; also called H28FL L16FL; NOGO H28L16
T7 sequence (light, as listed by the source): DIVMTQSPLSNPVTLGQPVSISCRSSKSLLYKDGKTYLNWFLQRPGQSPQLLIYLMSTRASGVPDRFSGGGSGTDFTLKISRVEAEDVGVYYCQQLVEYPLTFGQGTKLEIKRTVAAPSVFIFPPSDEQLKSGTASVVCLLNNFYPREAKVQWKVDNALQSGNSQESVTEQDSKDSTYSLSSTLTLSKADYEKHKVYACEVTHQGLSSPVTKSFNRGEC
Procedure: The plates were rinsed 3 times with TBS containing 0.05% Tween (TBST) then blocked with 1% BSA in TBST at room temperature for 1 hour. […] The plates were washed 3 times with TBST. Peptides (from 0 to 100 g/ml) and GST-human NOGO-A56 at a concentration of 1 ug/ml (diluted in 1% BSA in TBST) were pre-mixed prior to addition into the wells and incubated at room temperature for 1 hour. The plates were washed 3 times with TBST then incubated for 1 hour with rabbit anti-GST peroxidase conjugate (Sigma, #A7340, 1:2000, diluted in 1% BSA in TBST) for 1 hour. The plates were washed 3 times with TBST and then incubated with 50 l OPD peroxidase substrate (Sigma) per well for 10 minutes. The colour reaction was stopped by the addition of 25 l concentrated H₂SO₄. Absorbance at 490 nm was measured using a plate reader.

T1 sequence (chain, as listed by the source limits assumed): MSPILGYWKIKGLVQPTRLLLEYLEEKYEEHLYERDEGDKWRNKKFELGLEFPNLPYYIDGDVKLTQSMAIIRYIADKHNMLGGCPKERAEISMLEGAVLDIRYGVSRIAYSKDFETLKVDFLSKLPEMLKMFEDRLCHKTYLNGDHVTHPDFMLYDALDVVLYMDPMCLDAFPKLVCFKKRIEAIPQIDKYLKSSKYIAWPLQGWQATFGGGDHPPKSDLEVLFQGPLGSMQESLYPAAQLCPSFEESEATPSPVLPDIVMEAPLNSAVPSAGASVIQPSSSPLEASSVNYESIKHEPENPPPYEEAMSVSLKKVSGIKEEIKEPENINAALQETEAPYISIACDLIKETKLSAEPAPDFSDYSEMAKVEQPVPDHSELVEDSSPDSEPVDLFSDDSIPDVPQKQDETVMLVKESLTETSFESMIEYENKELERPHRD
T4 sequence (chain, as listed by the source limits assumed): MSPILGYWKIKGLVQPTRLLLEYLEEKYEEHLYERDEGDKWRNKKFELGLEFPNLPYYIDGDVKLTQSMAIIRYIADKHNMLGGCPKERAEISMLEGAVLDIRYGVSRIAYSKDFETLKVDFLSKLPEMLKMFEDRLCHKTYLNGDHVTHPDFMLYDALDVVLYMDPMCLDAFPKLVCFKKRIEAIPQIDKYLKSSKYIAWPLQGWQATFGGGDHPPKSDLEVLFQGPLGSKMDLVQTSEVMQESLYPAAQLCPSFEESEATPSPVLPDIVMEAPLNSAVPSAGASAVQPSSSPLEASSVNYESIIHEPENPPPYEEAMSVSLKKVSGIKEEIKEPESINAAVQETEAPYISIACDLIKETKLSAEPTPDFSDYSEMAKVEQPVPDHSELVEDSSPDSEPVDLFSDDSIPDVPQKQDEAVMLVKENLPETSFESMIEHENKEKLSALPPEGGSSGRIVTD
T5 sequence (chain, as listed by the source limits assumed): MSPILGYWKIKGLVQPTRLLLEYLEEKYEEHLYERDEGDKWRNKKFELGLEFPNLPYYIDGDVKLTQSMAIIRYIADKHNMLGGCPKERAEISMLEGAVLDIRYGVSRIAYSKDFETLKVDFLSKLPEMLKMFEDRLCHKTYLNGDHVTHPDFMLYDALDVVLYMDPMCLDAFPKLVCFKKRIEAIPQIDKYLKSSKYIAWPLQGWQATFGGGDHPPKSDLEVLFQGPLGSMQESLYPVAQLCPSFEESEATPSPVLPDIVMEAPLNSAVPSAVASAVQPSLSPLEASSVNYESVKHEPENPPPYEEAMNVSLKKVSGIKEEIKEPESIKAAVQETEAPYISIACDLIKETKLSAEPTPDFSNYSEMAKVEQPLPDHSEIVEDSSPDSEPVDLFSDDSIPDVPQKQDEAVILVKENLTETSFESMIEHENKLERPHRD
T3 sequence (chain, as listed by the source limits assumed): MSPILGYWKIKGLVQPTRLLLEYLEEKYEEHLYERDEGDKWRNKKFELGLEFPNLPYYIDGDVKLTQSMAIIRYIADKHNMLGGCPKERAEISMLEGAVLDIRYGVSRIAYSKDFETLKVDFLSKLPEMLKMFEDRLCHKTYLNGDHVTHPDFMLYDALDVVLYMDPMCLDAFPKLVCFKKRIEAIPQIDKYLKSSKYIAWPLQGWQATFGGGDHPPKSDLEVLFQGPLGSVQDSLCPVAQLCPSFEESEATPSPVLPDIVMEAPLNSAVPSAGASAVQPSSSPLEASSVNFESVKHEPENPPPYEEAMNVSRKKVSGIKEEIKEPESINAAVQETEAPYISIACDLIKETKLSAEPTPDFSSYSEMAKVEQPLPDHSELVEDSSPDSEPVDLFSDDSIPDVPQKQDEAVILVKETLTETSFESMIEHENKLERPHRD
T2 sequence (chain, as listed by the source limits assumed): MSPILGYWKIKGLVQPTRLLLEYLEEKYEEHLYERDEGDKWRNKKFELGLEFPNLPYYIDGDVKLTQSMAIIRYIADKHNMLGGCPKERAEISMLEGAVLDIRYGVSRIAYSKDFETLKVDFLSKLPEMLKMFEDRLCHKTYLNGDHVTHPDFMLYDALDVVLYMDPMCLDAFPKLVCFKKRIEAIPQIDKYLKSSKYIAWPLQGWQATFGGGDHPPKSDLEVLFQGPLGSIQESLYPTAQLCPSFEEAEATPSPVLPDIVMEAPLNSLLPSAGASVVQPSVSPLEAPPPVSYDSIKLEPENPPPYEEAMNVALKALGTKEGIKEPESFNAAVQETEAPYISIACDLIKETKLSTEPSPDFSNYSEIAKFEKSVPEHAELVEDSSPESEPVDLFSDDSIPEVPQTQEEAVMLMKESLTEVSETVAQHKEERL

B1: H6L13 (H6FL L13FL) (antibody, human IgG1, kappa, V domains shown)
VH: QVQLVQSGAEVKKPGASVKVSCKASGYTFTSYWMHWVRQAPGQGLEWIGNINPSNGGTNYNEKFKSRATMTRDTSTSTAYMELSSLRSEDTAVYYCELGQGYWGQGTLVTVSS
VL: DIVMTQSPLSLPVTLGQPASISCRSSKSLLYKDGKTYLNWFQQRPGQSPQLLIYLMSTRASGVPDRFSGGGSGTDFTLKISRVEAEDVGVYYCQQLVEYPLTFGQGTKLEIKR
notes: Human IgG1 (L235A, G237A, EU Index) / kappa; also called H6L13 with VH CDR3 GQGY
- Kd [1]: 6970 pM
- koff [1]: 0.00722 s⁻¹
- kon [1]: 1.04e+06 M⁻¹ s⁻¹
- koff [2]: 0.0138 s⁻¹
- koff [3]: 0.0198 s⁻¹
- EC50 (read off the curve) [4]: ~0.1 µg/mL
- EC50 (read off the curve) [5]: ~0.1 µg/mL

B2: H20L16 (antibody, human IgG1, kappa, V domains shown)
VH: B1 VH with R67K
VL: B1 VL with L11N, A19V, Q42L
notes: IgG1 (L235A, G237A) / kappa; CAMPATH-1H signal (1-19) left out
- EC50 (read off the curve) [6]: ~0.08 µg/mL
- EC50 (read off the curve) [7]: ~0.07 µg/mL
- EC50 (read off the curve) [8]: ~0.09 µg/mL
- EC50 (read off the curve) [9]: ~0.05 µg/mL
- Kd [10]: 1160 pM
- koff [10]: 0.00542 s⁻¹
- kon [10]: 4.69e+06 M⁻¹ s⁻¹
- Kd [11]: 1510 pM
- koff [11]: 0.0108 s⁻¹
- kon [11]: 7.17e+06 M⁻¹ s⁻¹
- EC50 (read off the curve) [4]: ~0.09 µg/mL
- EC50 (read off the curve) [5]: ~0.1 µg/mL
- EC50 (read off the curve) [12]: ~0.1 µg/mL
- binding result [13]: binds
- Kd [14]: 1800 pM
- Kd [15]: 310 pM
- EC50 (read off the curve) [16]: ~0.08 µg/mL

B3: H26L13 (antibody, human IgG1, kappa, V domains shown)
VH: B1 VH with G99M
VL: B1 VL
notes: H26 FL is H6 FL with G95M (Kabat); IgG1 (L235A, G237A) / kappa; CAMPATH-1H signal (1-19) left out; also called H6(G95M)L13; H6L13 with VH CDR3 MQGY
- koff [2]: 0.00431 s⁻¹
- koff [3]: 0.00485 s⁻¹
- EC50 (read off the curve) [17]: ~0.03 µg/mL
- Kd [18]: 963 pM
- koff [18]: 0.00311 s⁻¹
- kon [18]: 3.23e+06 M⁻¹ s⁻¹
- Kd [19]: 870 pM
- koff [19]: 0.00288 s⁻¹
- kon [19]: 3.45e+06 M⁻¹ s⁻¹
- EC50 (read off the curve) [5]: ~0.1 µg/mL

B4: H27L16 (antibody, human IgG1, kappa, V domains shown)
VH: B1 VH with R38K, A40R, R67K, M70L, R72V, T74K, G99M
VL: B1 VL with L11N, A19V, Q42L
notes: IgG1 (L235A, G237A) / kappa; CAMPATH-1H signal (1-19) left out; also called H27FL L16FL
- EC50 (read off the curve) [17]: ~0.06 µg/mL
- Kd [18]: 194 pM
- koff [18]: 0.00121 s⁻¹
- kon [18]: 6.24e+06 M⁻¹ s⁻¹
- Kd [10]: 380 pM
- koff [10]: 0.0015 s⁻¹
- kon [10]: 3.94e+06 M⁻¹ s⁻¹
- Kd [11]: 426 pM
- koff [11]: 0.00306 s⁻¹
- kon [11]: 7.18e+06 M⁻¹ s⁻¹
- EC50 (read off the curve) [4]: ~0.06 µg/mL
- EC50 (read off the curve) [12]: ~0.04 µg/mL
- binding result [13]: binds
- Kd [14]: 560 pM
- IC50 (read off the curve) [20]: ~5 µg/mL
- Kd [15]: 310 pM
- EC50 (read off the curve) [16]: ~0.1 µg/mL

B5: H28L13 (antibody, human IgG1, kappa, V domains shown)
VH: B1 VH with R67K, G99M
VL: B1 VL
notes: IgG1 (L235A, G237A) / kappa; CAMPATH-1H signal (1-19) left out; also called H28FL L13FL
- Kd [18]: 454 pM
- koff [18]: 0.0033 s⁻¹
- kon [18]: 7.26e+06 M⁻¹ s⁻¹
- Kd [10]: 936 pM
- koff [10]: 0.00389 s⁻¹
- kon [10]: 4.16e+06 M⁻¹ s⁻¹
- Kd [11]: 1020 pM
- koff [11]: 0.00759 s⁻¹
- kon [11]: 7.43e+06 M⁻¹ s⁻¹
- Kd [19]: 450 pM
- koff [19]: 0.00317 s⁻¹
- kon [19]: 6.97e+06 M⁻¹ s⁻¹
- EC50 (read off the curve) [4]: ~0.08 µg/mL
- EC50 (read off the curve) [5]: ~0.07 µg/mL
- EC50 (read off the curve) [12]: ~0.03 µg/mL
- Kd [14]: 1110 pM
- IC50 (read off the curve) [20]: ~5 µg/mL
- Kd [15]: 340 pM
- EC50 (read off the curve) [16]: ~0.06 µg/mL

B6: Hc(G95M)Lc (antibody, human IgG1, kappa, V domains shown)
VH: QVQLQQPGTELVKPGASVKLSCKASGYTFTSYWMHWVKQRPGQGLEWIGNINPSNGGTNYNEKFKSKATLTVDKSSSTAYMQLSSLTSEDSAVYYCELMQGYWGQGTLVTVSS
VL: DIVITQDELSNPVTSGESVSISCRSSKSLLYKDGKTYLNWFLQRPGQSPQLLIYLMSTRASGVSDRFSGSGSGTDFTLEISRVKAEDVGVYYCQQLVEYPLTFGAGTKLELKR
notes: also called HcLc containing the G95M mutation of the CDR H3
- koff [2]: 0.000614 s⁻¹

Binder: Biotin-SGSGTPSPVLPDIVMEAPLN [peptide 6 (biotin-SGSG-TPSPVLPDIVMEAPLN)]
- binding result [21]: binds

Binder: Biotin-SGSGVLPDIVMEAPLNSAVP [peptide 7 (biotin-SGSG-VLPDIVMEAPLNSAVP)]
- IC50 (read off the curve) [21]: ~0.9 µg/mL

Binder: Biotin-SGSGYESIKHEPENPPPYEE [peptide 16]
- binding result [21]: no binding (tested: about 33 mcg/ml)

Binder: Biotin-SGSGKHEPENPPPYEEAMSV [peptide 17]
- binding result [21]: no binding (tested: about 33 mcg/ml)

B7: H100L101 (antibody, V domains shown)
VH: B1 VH with G101S
VL: DIVMTQSPLSLPVTLGQPASISCRSSKSLLYKDGKTYLNWFQQRPGQSPRLLIYLMSTRASGVPDRFSGGGSGTDFTLKISRVEAEDVGVYYCQQLVEYPLTFGQGTKLEIK
notes: Full length version expressed in CHO cells; L101 is L13 VL with Q45R (Kabat)
- Kd [1]: 329 pM
- koff [1]: 0.00429 s⁻¹
- kon [1]: 1.3e+07 M⁻¹ s⁻¹
